Test results from article PMC8719716.

What was measured:
Plk1 = Plk1 (UniProt P70032); experiment: reciprocal co-IP of tagged proteins, embryo lysates; details: reference: wild type CEP97; sites S634,S643,S649,S653
Plk1 PB1 and PB2 domains = Plk1 PB1 and PB2 domains (UniProt P70032); experiment: as above; details: reference: wild type CEP97; sites S634,S643,S649,S653

## CEP97 (from UniProt Q6GPJ8) CEP97 SA (S634A, S643A, S649A, S653A)
Plk1
  binding against the reference: weaker
Plk1 PB1 and PB2 domains
  binding against the reference: lost
